Paper doi:10.1101/2025.04.23.650119

Molecular target: α-conotoxin ImII (Conus imperialis)
Assay: cryo-EM structure

α-conotoxin ImII (peptide)
stoichiometry N: 2
